# The supplement of paper PMC12764529
# ± gives the half width of the 95% confidence interval.
# Test: folding stability dG unfold from trypsin proteolysis; higher = more stable
# Method in brief: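 How resistant each design was to proteolysis was captured as K50, inferred by Bayesian fitting of sequencing counts. Unfolding free energy was then derived relative to a sequence-predicted unfolded-state K50 and a shared folded-state K50, per protease or combined. Digestion used trypsin and chymotrypsin at 11 threefold-diluted concentrations plus a no-protease condition, on mini-proteins under 80 residues without cysteine in a PA-tagged cDNA display construct. Designs were kept only when AlphaFold2 dimer inter-PAE was above 15.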
row,Sequence,folding stability dG unfold [kcal/mol]
1,SAGGMSVVIPVRPEDREEVRELLEALPSEDVKVVIYNPVTGEKREVTPEEARALLEATDEPLVIEVRSAGGS [r16_263_TrMRF],1.68 ± 0.046
2,SAGGSAGGSAPNQTWVLRITIKFPNGKKRSFQFTFPLDDIKEEIEEEFGIDDIDIEWQPLDSAGGSAGGSAG [r3_220_TrROS],2.63 ± 0.061
3,SAAKKVVTVPLPFLAPENSITPEELVALAVAAFEKLFPGAKIEKFEFNMPVFRLPGDGVIVVVEITDTSSAG [r14_145_TrMRF],2.04 ± 0.041
4,SAGGSALDPGKPVRVTVNLRVYRPLPDGTVKTFPSATVDLPVEEVLDLAKALPKEYTVTVDSIVVDSAGGSA [r15_833_TrMRF],0.249 ± 0.14
5,SAGGSANTTYIELPTNGMSDEEVKELAEELAKKLGVKLEIKPLPGEGYWVVTFTLPDSTSTIVIPGSAGGSA [r15_168_JUSTAS],2.55 ± 0.11
6,SAGGMTIRVEVFRDGELVETLEFEGSVEELLAKLPPEVTYVRIEVEKDGKTETVEFKTAEELKAALKSSAGG [r13_299_TrROS_Hall],2.13 ± 0.076
7,SAGGSAGGMYVIRVKIYDKETGELIEELTLVFDSEEEAERAVRELAAALPPDVRVEVEIVKLPPSAGGSAGG [r6_688_TrROS_Hall],5.01 ± 0.18
8,SAGGSAGGTITLPGVTVEITEENGTLTIRVTSPDGRTLTRTITLPAGETVTVTDANGKTVTVRLSAGGSAGG [r6_806_TrROS_Hall],2.8 ± 0.073
9,SAGKVIIIPAEKAEPELIKEILKKVPEGTEIRIAFAGPELVELLKELGFEVKPELVKPLTPEDLKKLLESAG [r5_354_TrMRF],0.747 ± 0.062
10,SAGGSAGGSAGWLKLKFEFTFMIIIWNDDGNNELVMIPIRIRITMTIPPIKYDPDGKLKLSAGGSAGGSAGG [r11_558_TrROS],2.87 ± 0.22
11,SAGGSAGGSAEEKVFVKLYLNPNEPPTIDLEFFFEDGRVVRLRLDLATGTLNDIDPRPLDFSAGGSAGGSAG [r3_299_TrMRF],2.74 ± 0.082
12,SAGGSAGGSAPNLKLKIKLDIHVFPDGWLYVSTKIEIENPGKPVEFTIMFRFPIPPNEPAPSAGGSAGGSAG [r3_383_TrROS],3.85 ± 0.27
13,SAGGSAGGSEKVTIRFPAKELRERFPNATPEQIADRIAKKFPNIKRIEVEQEPGYYRITVQVESAGGSAGGS [r12_590_TrROS],2.58 ± 0.12
14,SAGGSAGGSDPVPIVITYPDGSTSTTLEPDKIYITYPSKGLKYVVPIDLSTNKISFSLESSLPSAGGSAGGS [r12_539_JUSTAS],-0.699 ± 0.12
15,SAGGSMEVEEFETTDPATGKPYRLRFTYDSETGIPVLEVFAPDGTPLATVPVEPGEAEAARERLGASAGGSA [r2_115_JUSTAS],0.0239 ± 0.063
16,SAGGSAGGSAGGMTVTLKAPDGKWLTVPVDPEDPKAVKEAVEELAAKGHPVVEVSTDEKSAGGSAGGSAGGS [r10_231_JUSTAS],0.555 ± 0.025

row,Sequence,folding stability dG unfold [kcal/mol]
1,GYRPALAVVELGPNSRLLLRPPEGPSVEIEVESPEEALAAALKLLPKDQPLVLEVFDEGKLIETIPIEIPPS [r1_276_TrMRF],0.973 ± 0.036
2,SAGGSAGGSSTLTLTVRVEVTVEVDGKTYTFTAELTLTVELPPLPEEDLKLYRTDDGELRLVRSAGGSAGGS [r12_1031_TrROS_Hall],2.94 ± 0.21
3,SMRIVTEDGQELTIVLPKVPPNMTPEQLRKALEEAGVEVEEITFDEETGEVTVKIRFKDAEKAEEALKKASA [r9_1154_TrROS_Hall],1.51 ± 0.059
4,SAGGSKPVYKVKIEIEFNGKKIEIEIEAETEEEAKKAVEELLKKLFEENKDNLKIKVEVEKLPEKPSAGGSA [r2_111_TrROS_Hall],2.95 ± 0.15
5,PSVVYLVLRRPEGGPVRSFRFPVPDRGEPGFEEVLDLIERVTGVSRGALRKNVRIVPVPETGDVLVVADLSS [r1_285_TrMRF],2.052 ± 0.014
6,SAGGSAGGSAKVILLPSPDDSVVLITVHPDDTVEVTVLRLNPEDPTYEPVTVTVPLSYPELFSAGGSAGGSA [r18_503_TrMRF],0.903 ± 0.044
7,SAMKEGQRLLVVKITIYNKNGEKVEELELVVPEEDKEKALEAAKKLAEELAKKLNLEIKIEVEEVPLPPSAG [r14_146_TrROS_Hall],3.14 ± 0.2
8,SSSVTRTYTVTLPGSTVSIEITEKPNPEGSTTVTITVTTTKPGGGSTTTTVTKNITGLTLEDILKEAISSSA [r9_217_JUSTAS],3.38 ± 0.092
9,SSIEEQIREIFEPKGMEITDVKTEKKPDGTTVAKFTYTDPVKDEKGNPISTLTKEGTVVFKNGKIVEVEESA [r9_519_JUSTAS],2.27 ± 0.052
10,SAGGSAGGSAGGSKKTITVTVLFKDKNGKPVYIAKAKVTLNENGEETIEITEIYPLEDLSAGGSAGGSAGGS [r4_117_TrROS_Hall],1.8 ± 0.12
11,SADKVMIMFRSPQTFRRILREALKTDKPVYLMFPPKWMDELKELGFPNVKIEPQKNPNGGPYYMFELPVSAG [r14_127_TrROS],1.83 ± 0.044
12,SSLTVRLELEVTFEDGLRVRVEVEAELREVDGKLELRVRVRVEVRPLPPPPPPPPPPRLSDEQLEELRKRSA [r9_965_TrROS_Hall],0.786 ± 0.19
13,SAGGSAGGSAGYLYFISIEFNLQWNGDGNLQLQPKIEIQRIEIPPPPPKWKYDGNKPKYDSAGGSAGGSAGG [r17_418_TrROS],2.44 ± 0.12
14,SAGGSAGGSASPAPDTLYVPVVFDVVFPLPDGSYVLVPVLAYYQLPGGTLLASVRFAVTFDSAGGSAGGSAG [r3_484_TrMRF],2.77 ± 0.16
15,SKKMTAEELLKKFPNVVFIRLKNGKIIAFNKETKEIYIFNLKTGKVEKIKVTPEELEKLAKENNFEIYPVSA [r9_721_TrROS_Hall],2.48 ± 0.078
16,SAGGKVAAPAQPLASTKVERTTLPTGTTVTYVTVTSSAVPTPTTYTFSPGENPGDFAAATGLPVTLVSAGGS [r16_676_JUSTAS],-0.488 ± 0.29
